Paper PMC5761276 (Journal of the American Chemical Society, 2017)

How the values were obtained:
Grb2-Alexa Fluor 647 [1] = biological target: T1, Grb2-Alexa Fluor 647 (UniProt P62993 1-217, Alexa Fluor 647 (site not stated)); assay: ITC
Grb2-Alexa Fluor 647 [2] = biological target: T1, Grb2-Alexa Fluor 647; assay: single-molecule dwell time analysis

| Kd (Grb2-Alexa Fluor 647 [1]) [nM] | koff (Grb2-Alexa Fluor 647 [2]) [s⁻¹] | Binder |
| --- | --- | --- |
| 459 | 1.4 | LAT-FFFY (monovalent LAT1Y, residue 48-233), phosphorylated (domain or fragment, phosphotyrosine at Y226; Alexa Fluor 568 (site not stated)) GIQFKRPHTVAPWPPAFPPVTSFPPLSQPDLLPIPRSPQPLGGSHRTPSSRRDSDGANSVASFENEEPACEDADEDEDDFHNPGFLVVLPDSTPATSTAAPSAPALSTPGIRDSAFSMESIDDFVNVPESGESAEASLDGSREFVNVSQELHPGAAKTEPAALSSQEAEEVEEEGAPDYENLQELN |
| 195 | 3.3 | LAT-FFYF (monovalent LAT1Y, residue 48-233), phosphorylated (domain or fragment, phosphotyrosine at Y191; Alexa Fluor 568 (site not stated)) GIQFKRPHTVAPWPPAFPPVTSFPPLSQPDLLPIPRSPQPLGGSHRTPSSRRDSDGANSVASFENEEPACEDADEDEDDFHNPGFLVVLPDSTPATSTAAPSAPALSTPGIRDSAFSMESIDDFVNVPESGESAEASLDGSREYVNVSQELHPGAAKTEPAALSSQEAEEVEEEGAPDFENLQELN |
